The text below walks through data of US6384189 (UAB RESEARCH FOUNDATION, dated 2002).

Assay [1] concerns the target recombinant small latent TGF-β. Description: cell-based or functional assay.
Assay [2] addresses recombinant small latent TGF-β. The assay is described as follows: cell-based or functional assay. This is another data set of the same source.

Where two headings read alike, the source gives them in different places.

B1: QRFK (SEQ ID NO:8) (peptide)
peptide: QRFK
As for B1, in assay [1], the “Fold Activation of Latent TGF-β over Baseline (soft agar NRK colony formation)” value (“Fold Activation of Latent TGF-β” for short) came out at 2 fold over baseline.

B2: KRFKQDGGWSHW (SEQ ID NO:16) (peptide)
peptide: KRFKQDGGWSHW
Regarding B2, the “Fold Activation of Latent TGF-β” value in assay [2] came out at 1.9 fold over baseline.

B3: KRFKQDGGWSHWSPWSS (SEQ ID NO:15) (peptide)
peptide: KRFKQDGGWSHWSPWSS
Take B3: the “Fold Activation of Latent TGF-β” value in assay [2] was determined as 2 fold over baseline.

B4: HRFK (SEQ ID NO:6) (peptide)
peptide: HRFK
For the molecule B4, the “Fold Activation of Latent TGF-β” value in assay [1] was found to be 2 fold over baseline.

B5: KKFK (SEQ ID NO:32) (peptide)
peptide: KKFK
B5: the “Fold Activation of Latent TGF-β” value in assay [1] was 2.2 fold over baseline.

B6: KRFKQDGGWWSP (SEQ ID NO:17) (peptide)
peptide: KRFKQDGGWWSP
As to B6, the “Fold Activation of Latent TGF-β” value in assay [2] stood at 2.1 fold over baseline.

B7: KRFKQDGG (SEQ ID NO:9) (peptide)
peptide: KRFKQDGG
Take B7: the “Fold Activation of Latent TGF-β” value in assay [2] was determined as 2.1 fold over baseline.

B8: KRFKQDGGWSHWSP (SEQ ID NO:14) (peptide)
peptide: KRFKQDGGWSHWSP
For the molecule B8, the “Fold Activation of Latent TGF-β” value in assay [2] worked out at 2.3 fold over baseline.

B9: KRFK (SEQ ID NO:5) (peptide)
peptide: KRFK
For the molecule B9, the “Fold Activation of Latent TGF-β” value in assay [1] and in assay [2] was 2 fold over baseline throughout.
